Assay results as given in patent publication US20030220250A1.

Molecular target: Tie-2 tyrosine kinase receptor on HUVECs (human) (UniProt Q02763)
Test: cell-based or functional assay

UniProt Q02763, sequence (Q02763 23-1124): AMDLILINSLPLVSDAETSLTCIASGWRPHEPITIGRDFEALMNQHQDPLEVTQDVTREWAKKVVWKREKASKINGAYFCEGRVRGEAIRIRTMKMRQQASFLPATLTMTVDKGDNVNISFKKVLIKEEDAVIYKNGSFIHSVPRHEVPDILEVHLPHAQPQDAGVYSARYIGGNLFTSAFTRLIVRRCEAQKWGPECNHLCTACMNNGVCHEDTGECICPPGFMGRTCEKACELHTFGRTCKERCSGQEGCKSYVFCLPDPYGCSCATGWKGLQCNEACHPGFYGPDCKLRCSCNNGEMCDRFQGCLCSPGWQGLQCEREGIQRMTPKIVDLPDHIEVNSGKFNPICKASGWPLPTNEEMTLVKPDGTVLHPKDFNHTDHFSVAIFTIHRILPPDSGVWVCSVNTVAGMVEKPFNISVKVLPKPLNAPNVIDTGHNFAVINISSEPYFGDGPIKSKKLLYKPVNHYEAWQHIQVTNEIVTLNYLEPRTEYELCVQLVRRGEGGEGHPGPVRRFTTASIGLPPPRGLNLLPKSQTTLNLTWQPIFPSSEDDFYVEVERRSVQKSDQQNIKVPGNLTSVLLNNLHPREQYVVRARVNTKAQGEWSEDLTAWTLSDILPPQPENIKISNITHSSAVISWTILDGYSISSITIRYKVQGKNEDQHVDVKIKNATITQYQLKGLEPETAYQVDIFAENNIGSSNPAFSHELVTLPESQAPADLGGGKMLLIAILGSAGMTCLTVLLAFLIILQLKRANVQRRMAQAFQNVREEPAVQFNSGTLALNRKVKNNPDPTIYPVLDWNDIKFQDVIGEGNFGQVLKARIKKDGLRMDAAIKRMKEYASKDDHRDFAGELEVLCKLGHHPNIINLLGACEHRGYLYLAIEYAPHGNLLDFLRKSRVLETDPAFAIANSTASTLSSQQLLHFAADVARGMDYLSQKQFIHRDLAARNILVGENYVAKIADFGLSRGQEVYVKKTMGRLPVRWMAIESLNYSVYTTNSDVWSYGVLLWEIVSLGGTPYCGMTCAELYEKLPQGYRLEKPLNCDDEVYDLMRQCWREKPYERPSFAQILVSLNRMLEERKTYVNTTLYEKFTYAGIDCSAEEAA

Tie-2 phosphorylation in HUVECs after 48 h transwell co-culture (Tie-2 immunoprecipitation, anti-phosphotyrosine Western blot, densitometry), versus co-culture with pcDNA-transfected HT29 cells: 2 fold
Substance: Angiopoietin-1 secreted by HT29 human colon cancer cells stably transfected with full-length Ang-1 cDNA in pcDNA3.1 (from UniProt Q15389 16-498) (ligand)
